For experiment [1], the target named is T1, human PD-1 ECD/Fc fusion protein (human).
T1 construct: also called huPD-1/Fc; HuPD-1 ECD/Fc
The experiment is described as follows: ELISA, coated huPD-1/Fc. As to the method:
ELISA plates were incubated overnight at 4° C. with 50 μl of the synthetic human PD-1 ECD/Fc fusion protein targets described above diluted in PBS buffer, pH 7.4, at 1 μg/ml. Plates were washed four times in washing buffer (PBS containing 0.05% Tween 20), and blocked for 1 hour at 37° C. with 200 μl per well blocking buffer (1% BSA in PBS containing 0.05% Tween 20). After blocking buffer was removed, hybridoma supernatant (or later diluted purified mAbs) were added to the wells at 100 μl per well and incubated at 37° C. for 1 hour. The wells were washed four times with washing buffer, and anti-mouse HRP (Sigma) for mouse anti-human PD-1 antibody characterization were diluted 1:5000 and added to the wells at 100 μl per well. The plates were incubated for 1 hour at 37° C. and washed four times in washing buffer. 100 μl of tetramethylbenzidine (TMB) chromogenic solution were added per well. Following color development, the reaction was stopped with 1 Normal HCl and absorbance at 450 nm was measured on a SpectraMax M5e plate reader (Molecular Devices; San Jose, Calif., US).
A binding ELISA was performed in the same way as described in Example 1.3 above. Each purified antibody was 10-fold serially diluted and duplicated. After blocking of the 96-well assay plate with wells containing immobilized PD-1 ECD/Fc fusion protein targets, the purified antibody samples with diluted concentrations were added to wells of assay plates. The HRP-linked anti-mouse IgG antibody (A0168, Sigma) and TMB reagent were used to detect and develop the ELISA signal, which were read on a SpectraMax® M5e plate reader at wavelength of 450 nm. Curves were fitted using GraphPad software, and EC50 were calculated. Similarly, a receptor blocking assay (RBA) was also performed as described in Example 1.5 with titrated, purified antibodies, and top blocking percentages and IC50 values were determined.

Experiment [2] concerns the target T2, human PD-1 expressed on cells (human, UniProt Q15116 25-288).
T2 construct: whole, on cells; also called CHO-K1/huPD-1; CHO-K1-hPD-1 cells
The experiment is described as follows: FACS, CHO-K1/huPD-1 cells. As to the method: (§1) CHO-K1/huPD-1 or CHO-K1/cynoPD-1 cells, described above, were charged at 2×10⁴ cell per well into 96-well assay round-bottomed assay plates (Cat. No. 3799; Corning) and stained with purified anti-PD-1 antibodies. PD-1 antibodies were detected with AlexaFluor® Donkey anti-Mouse IgG (H+L) Highly Cross-Adsorbed Secondary Antibody, (Cat. No. A21202; Invitrogen), and cell fluorescence was monitored using a flow cytometer. The data were processed by GraphPad software, and EC50 values were calculated.
On the technique in general: In flow cytometry, cells or beads pass a laser one at a time.

Experiment [3] concerns the target T3, cynomolgus PD-1 expressed on CHO-K1 cells (cynomolgus monkey, UniProt B0LAJ3 25-288).
T3 construct: also called CHO-K1/cynoPD-1; CHO-K1-cynoPD-1
The experiment is described as follows: FACS, CHO-K1/cynoPD-1 cells. Here is the method: as §1

For experiment [4], the target named is T1, human PD-1 ECD/Fc fusion protein. The experiment is described as follows: SPR Biacore, mAb captured, huPD-1/Fc analyte. As to the method:
The binding kinetics of purified antibodies were measured by surface plasmon resonance using a Biacore […] instrument (GE Healthcare) using standard procedures. Briefly, goat anti-mouse IgG Fc polyclonal antibody (Genway) was directly immobilized across a biosensor chip, and antibodies samples were injected over reaction matrices at a flow rate of 5 μl/min. The association and dissociation rate constants, kₒₙ(M⁻¹ s⁻¹) and koff (s⁻¹) respectively, were determined with a continuous flow rate of 30 μl/min. Rate constants were derived by making kinetic binding measurements at five different concentrations of human PD-1/Fc protein. The equilibrium dissociation constant KD (M) of the reaction between antibodies and related target proteins was then calculated from the kinetic rate constants using the formula KD=koff/kₒₙ.

Experiment [5] shares this target. In words: RBA ELISA on huPD-1/Fc; competitor biotin-huPD-L1/Fc. As to the method:
(§2) Supernatants displaying PD-1 specific activity were tested for the ability to block PD-1 binding to its ligands PD-L1 and PD-L2 using immobilized human PD-1 ECD/Fc as a target and PD-L1/Fc and PD-L2/Fc fusion proteins, prepared in the same manner as the PD-1 ECD/Fc binding proteins described in Example 1.3 above. To determine the relative potency of the antibody-containing supernatants, their ability to inhibit the binding of a human PD-1 ligand (PD-L1 or PD-L2) to human PD-1 protein was evaluated. ELISA plates were coated with 100 μl of 50 ng/m of huPD-1/Fc (i.e., the extracellular domain of PD-1 grafted onto the N-terminus of a human Fc region, recovered as a homodimer) in PBS and incubated overnight at 4° C. Plates were washed four times in washing buffer (PBS containing 0.05% Tween 20) and blocked for 1 hour at 37° C. with 200 μl per well of blocking buffer (1% BSA in PBS containing 0.05% Tween 20). After blocking buffer was removed, hybridoma supernatant (50 μl) was added to the wells, mixed with either 50 μl biotinylated human PD-L1/Fc ([…] final concentration) in blocking buffer or 50 μl biotinylated human PD-L2/Fc (final concentration 50 μg/ml) in blocking buffer, then incubated at 37° C. for 1 hour. Signal was developed by adding streptavidin-HRP (Sigma, Cat. No. S2468) (100 μl/well of streptavidin-HRP at 1:5000 dilution) and incubating for 40 minutes at 37° C. and washed four times in washing buffer. 100 μl of TMB solution were added per well. Following color development, the reaction was stopped with 1 Normal HCl and absorbance at 450 nm was measured. […]
A general note: In an ELISA, binding on a coated surface is turned into a signal by an enzyme label.

Experiment [6] has the same target. The experiment is described as follows: RBA ELISA on huPD-1/Fc; competitor biotin-huPD-L2/Fc. As to the method: as §2
Experiment [7] deals with T4, recombinant human LAG-3-his protein (Novoprotein) (human, UniProt P18627 23-450).
T4 construct: Bought; also called huLAG-3; not shown: His tag
T4 sequence (looked up): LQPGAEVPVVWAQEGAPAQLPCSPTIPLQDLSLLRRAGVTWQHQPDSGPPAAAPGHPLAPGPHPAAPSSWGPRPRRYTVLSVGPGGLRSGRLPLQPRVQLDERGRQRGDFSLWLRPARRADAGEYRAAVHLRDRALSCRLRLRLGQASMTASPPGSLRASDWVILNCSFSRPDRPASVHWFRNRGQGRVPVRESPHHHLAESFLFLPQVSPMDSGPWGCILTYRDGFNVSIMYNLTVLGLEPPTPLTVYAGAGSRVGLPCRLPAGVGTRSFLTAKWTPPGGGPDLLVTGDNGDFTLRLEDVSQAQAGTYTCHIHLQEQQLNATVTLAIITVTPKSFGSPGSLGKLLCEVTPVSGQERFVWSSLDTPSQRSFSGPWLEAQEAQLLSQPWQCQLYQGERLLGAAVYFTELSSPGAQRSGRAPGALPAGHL
The experiment is described as follows: BLI Octet, FIT-Ig captured, antigen analyte. Background: Biolayer interferometry detects binding as a change in optical thickness at a sensor tip.

The target in experiment [8] is Cyno LAG-3-His (cynomolgus). The experiment is described as follows: BLI Octet, FIT-Ig captured, antigen analyte.
The target in experiment [9] is T5, human PD-1-His protein (human, UniProt Q15116 25-167, limits assumed).
T5 construct: also called huPD-1; not shown: His tag
The experiment is described as follows: BLI Octet, FIT-Ig captured, antigen analyte.

The target of experiment [10] is Cyno PD-1-His (cynomolgus, UniProt B0LAJ3 25-170). The experiment is described as follows: BLI Octet, FIT-Ig captured, antigen analyte.

This is an account of results in US20210188980A1 (SHANGHAI EPIMAB BIOTHERAPEUTICS, published 2021).

B1: mAb714 (antibody, V domains shown)
VH: EVHLQQSGPELVKPGASVKIFCKASGYTFTDNNVEWVKQSHGKSLEWIGDINPNNGDTLYSQYFKDKATLTVDKSSTTAYMELRSLTSEDTGLYYCARGKSDQFDYWGQGTTLTVSS
VL: DIQMTQSPASQSASLGESVTITCLASQTIGTWLAWYQQKPGKSPQLLIYAATSLADGVPSRFSGSGSGTKFSFKISSLQGEDFVSYYCQQLYSSPWTFGGGTKLEIK
notes: murine hybridoma anti-PD-1 mAb
Broadly, the EC50 is the concentration at which the effect is half-maximal. The low end stands for an effect from little substance, the high end for a need for much substance. Broadly, the Kd is the concentration at which binding is half-saturated. By koff is commonly meant a measure of how fast the partners let go of each other. What is called kon is the rate constant with which the complex forms. One may read the IC50 as the point on the concentration scale where inhibition reaches its midpoint. Low readings indicate inhibition by little substance, high ones a need for much substance. B1 registered an EC50 in experiment [1] of 0.05 nM. In addition, the EC50 in experiment [2] is 1.6 nM. A half-maximal response in experiment [3] (EC50) required 0.8 nM. In experiment [4], this molecule showed a Kd of 2.11 nM, a koff of 0.00021 s⁻¹ and a kon of 99400 M⁻¹ s⁻¹. Besides, in [5], the IC50 is 2.95 nM and the “TOP inhibition (%)” value is 92.3%. In experiment [6], the IC50 was determined as 2.24 nM and the “TOP inhibition (%)” value is 93.1%.

B2: mAb713 (antibody, V domains shown)
VH: EVKLVESGGGLVKPGGSLELSCAASGFTSSDYGMHWVRQAPEKGLEWVAYISSGSYTIYYADTVKGRFTISRDNAKNTLFLQMTSLRSEDTAMYYCAKRGGSSHVNVMDYWGQGTSVTVSS
VL: DIQMTQSSSYLSVSLGGRVTITCKASDHINNWLAWYQQKPGNAPRLLISGATSLETGVPSRFSGSGSGKDYTLSITSLQTEDVATYYCQQYWSPPYTFGGGTKLEIK
notes: as for B1
In turn, B2 yielded an EC50 in [1] of 0.08 nM. The molecule also showed an EC50 in experiment [2] of 1.1 nM. In addition, in [3], the EC50 was determined as 0.9 nM. Also, in experiment [4], binding was characterised by a dissociation constant (Kd) of 1.96 nM, the koff worked out at 0.000285 s⁻¹ and the kon is 145000 M⁻¹ s⁻¹. For the same molecule, in [5], the IC50 came out at 2.95 nM and the “TOP inhibition (%)” value came to 94.4%. Further, in experiment [6], the IC50 was found to be 2.52 nM and the “TOP inhibition (%)” value came to 93.5%.

B3: mAb703 (antibody, V domains shown)
VH: DVQLQESGPGLVKPSQSLSLTCSVTGYSITTGYYWNWIRQFPGNKLEWMGYMSYDGNNNYNPSLKNRISITRDTSKNQFLLRLNSVTTEDTATYFCARDRGTTILGGTMDYWGQGTSVTVS
VL: SIVMTQTPKFLFVSAGDRVTIACKASQSVSNDVAWYQQKPGQSPKLLIYYAFYRYTGVPDRFTGSGYGTDFTFTISTVQAEDLAVYFCQQDYSSPWTFGGGTKLEIK
notes: as for B1
As for B3, the values for the concentration for a half-maximal effect (EC50) in experiment [1], in [2] and in experiment [3] were 0.05 nM, 0.5 nM and 0.7 nM, respectively. For the same molecule, the Kd in [4] amounted to 2.45 nM. In addition, the koff in experiment [4] amounted to 0.00085 s⁻¹. Besides, the kon in experiment [4] came to 347000 M⁻¹ s⁻¹. For the same molecule, the IC50 in experiment [5] is 3 nM; in experiment [6] it was 2.02 nM. For the same molecule, the “TOP inhibition (%)” value in experiment [5] worked out at 96%; in experiment [6] it was 95.7%.

B4: FIT107-1-7b-3 (bispecific antibody, human IgG1, kappa, L234A L235A)
chain 1: not shown
chain 2: EVQLVQSGAEVKKPGATVKLSCTASGFNIKDDYMHWVKQRPEQGLDWIGWIVPRNANTVYASKFQGKATITADTSTNTAYLELSSLRSEDTAVYYCTVYGDYWGQGTTVTVSSASTKGPSVFPLAPSSKSTSGGTAALGCLVKDYFPEPVTVSWNSGALTSGVHTFPAVLQSSGLYSLSSVVTVPSSSLGTQTYICNVNHKPSNTKVDKKVEPKSC
chain 3: not shown
notes: FIT-Ig hexamer; outer anti-LAG-3 (HumAb747V-73 with G55A), inner anti-PD-1 (HumAb713-7)
On to B4, for which the Kd worked out at 2.28 nM in experiment [7], 0.167 nM in experiment [8], 8.86 nM in experiment [9] and 3.71 nM in experiment [10]. Besides, the koff was 0.000328 s⁻¹ in [7], 4.7e-05 s⁻¹ in [8], 0.00103 s⁻¹ in experiment [9] and 0.000919 s⁻¹ in [10]. Further, the kon in experiment [7] stood at 144000 M⁻¹ s⁻¹; in experiment [8], 281000 M⁻¹ s⁻¹; in experiment [9] it was 116000 M⁻¹ s⁻¹; in experiment [10], 248000 M⁻¹ s⁻¹.

B5: FIT107-1-6a-2 (bispecific antibody, human IgG1, kappa, L234A L235A)
chain 1: not shown
chain 2: EVQLVESGGGLVQPGGSLRLSCAASGFTFSFYTMSWVRQAPGKGLEWVATISGGGRDTYYPDSVKGRFTISRDNAKNSLYLQMNSLRAEDTAVYYCAGQGGNYLFAYWGQGTLVTVSSASTKGPSVFPLAPSSKSTSGGTAALGCLVKDYFPEPVTVSWNSGALTSGVHTFPAVLQSSGLYSLSSVVTVPSSSLGTQTYICNVNHKPSNTKVDKKVEPKSC
chain 3: DIQMTQSPSSLSASVGDRVTITCRASQEISGYLSWLQQKPGGAIKRLIYAASALDLGVPSRFSGSRSGSDYTLTISSLQPEDFADYYCLQYASYPLTFGQGTKLELKRTVAAPSVFIFPPSDEQLKSGTASVVCLLNNFYPREAKVQWKVDNALQSGNSQESVTEQDSKDSTYSLSSTLTLSKADYEKHKVYACEVTHQGLSSPVTKSFNRGEC
notes: FIT-Ig hexamer; outer anti-PD-1 (HumAb709-8), inner anti-LAG-3 (HumAb747V-72 with G55A)
For the molecule B5, the Kd in experiment [7] was 1.02 nM; in [8] it was 0.428 nM; in [9] it was 1.28 nM; in [10] it was 3.49 nM. Moreover, the koff was 0.000117 s⁻¹ in experiment [7], 8.17e-05 s⁻¹ in experiment [8], 0.000239 s⁻¹ in experiment [9] and 0.00107 s⁻¹ in experiment [10]. For the same molecule, the kon in experiment [7] is 115000 M⁻¹ s⁻¹; in [8], 191000 M⁻¹ s⁻¹; in experiment [9] it was 187000 M⁻¹ s⁻¹; in experiment [10], 306000 M⁻¹ s⁻¹.
